Laboratory results reported in patent publication US20130274129.

Test system: AvrBs3-KRAB
Experiment: cell_activity
Conditions: two copies of TAL site, LacZ reporter, 293FT; around 40% with one copy

AvrBs3 TAL binding site in CMV promoter reporter
activity: 70 % repression
